This is an account of results in a protein production outcome set (Wang et al. 2014).
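Further: failed if final PepcDB status was selected cloned or expressed and not failed if soluble or beyond.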

The data set can be described thus: label from the status in PepcDB records.
Take “MRVIVAYDGSPGADKAVGFALGLKDSIDKYFILYVSRDITDLSGQLVYISDETVEQQERLADEIVNKAKSLMTRSGVDYEVMKVDSNGEDISKVIVKIAQEKGIDVIFTGTRKLRGLDKFFLGSISSGILALSSCPVIVVP”: the protein production result is “not failed”.
As for “MTSGTSVINDKVLQYETFISEVLRRDLQKVLEQRDAVYEKIAQYLQLKNTIQSIQESGSKELKTDVDLGCNFYVQAHVPDASRIYVAVGYGFFVEFTHAEALKFIEKKTNQLTEYTEVLTKDAAKIKANIRMVLEGLRELQGLKDLPEDRRREVF”, the protein production entry is recorded as “not failed”.
As for “MQYAYPLLAIFIWAGNTVINKLAVGAIFPAEIGFYRWLLAGLLFTPFMLKPVIKHWPEVRPNLWRIAILGVLGMAVYQSLAYFAASLTSATNMGIILSLMPLMSLAMAIAALGQRLTAGALVGAVLSFAGVLVVVSSGSLAALLQHGVNLGDAMMLVATLAYAIYSTLLKKWQLRLPPLVLLYLQVLVAVVVLLPLFLASPKVGPTLQNIPLVLYACLLASMLAPLAWMQAVVRLGPSRTTLFFNLLPLITALIAAVVLHEQLAWFHLVGGLLTLGGVILSERWTTVLGPLAGKPASAGQR”, the protein production entry is recorded as “failed”.
Regarding “MEDGHISSWWVVDLGEEHQLMCNYYTFRQDGSRAFTRFWKFQGSMDGKTWTDLRVHEDDQTMCKAGQFASWPITAANALLPFRFFRLVLTGPTADTSTPWNFCICYLELYGYFR”, the protein production entry was “failed”.
Take “GRYEIRFSGAGGQGLILAGVIMAEAASIYDGKQAVQSQSYGPEARGGASKSEVIISDGPVDYPKATQCDALLALTQEACDKYSADLKEGGVLLVDSDLVTKLPPGNYQTTAFNIINTAKNDVGREIVANIVALGAMVALTGVVSKEAAEKAVLSRVPEAFVELNRKAFQMGFEKALAAKK”: the protein production result is “not failed”.
Consider “MWKRASRRAGLRRRAVAQPVPPAELGGTAFSSVLEQLELECRAMVSYALKQGLAMSPDLPGRLAELRVMPGASLHGESGARELAGLHRQLVRAIQPATPQAVVLIERERLRGGWLRWLGPIPLIRTLTLTSVGCLASVVGLAMSSLVNERNITLGFLDSSGSTLGWNVMFILACAGLGAAFSALFQAHRYVADATYDPRFDSSYAARMILGLIAG”, for which the protein production result is listed as “failed”.
The value for “MHKFIVIFVTLLISISVQTLAADLEIEEIELRETPQKMYDRLNQSISFPISFKNREQFERAAQEQGYSPDEFEHILQLLARLNLEPNVKTKVEFQDANSLIELLTSIAQTPLEQATVAMLKGRYIGRTEQKYQEAIAFYNQALSHINDSVDLGSMLLKHTIHEHLGLLHLVIRQDVPALMHFHTYRDIAYKLRNDYLIAAAESKLGHYYNKNQQLTKSLQHYSEAVRLSNRSNYPSMKTHLQLQLAKVYRDLKQWDEALKNAHEAAAGFKKLGNDTYLSSCMTVIAMVYGEQGDWNRAIDYYLNAQQLDAKRGNYIAQGLNFHNLGQAYSHLNDNVNALKYLLMANKIFTDKQSHHYLVYNELLIGEIAQSKQDWTLMMSHAEHALALASNLALLDEQKSALTQIALSAEKMQDQAKVISTQKRIIELNNTSKNTAKDPAVAASVLAEQQLKLELNMVQGKLNDAIESAKETNKLLALSGVILTLLVIAIIALLNQRQKSRRQNESLLQLTLEEPFTHHKGYAALLRDLGPNTPHTRTTALALIEFRDHLMTDLNHGQYFANAITCQLASHISNSLFMPVYVIRQGLFAVRFTETVDPQQALTQLQQQLDKNAFTAIFNLGFINLPLLTKTEINIAPKLLFETVQMALAGARSLPSNTCHYVSLRALDFVPPTLFADPLFLHLEKGIERGLIRVETNAMKEDIVWPCWENNQNRHLLGNI” was “failed”; that for “MTFALGQRWISDTESDLGLGTVVAMDARTVTLMFAASEENRVYARNDAPVTRVTFNVGDVIDCQEGWSLKVEEVLEDEGLYTYFGTREDTQETAVVLREIFLSNQIRFNKPQDKLYAGQIDRMDNFVLRY” was “failed”; that for “MAKNYYDITLALAGICQSARLVQQLAHQGHCDADALHVSLNSIIDMNPSSTLAVFGGSEANLRVGLETLLGVLNASSRQGLNAELTRYTLSLMVLERKLSSAKGALDTLGNRINGLQRQLEHFDLQSETLMSAMAAIYVDVISPLGPRIQVTGSPAVLQSPQVQAKVRATLLAGIRAAVLWHQVGGGRLQLMFSRNRLTTQAKQILAHLTPEL” was “not failed”.
For “EPAHGRQHTPCLFCDRLFASAEETFSHCKLEHQFNIDSMVHKHGLEFYGYIKLINFIRLKNPTVEYMNSIYNPVPWEKDEYLKPVLEDDLLLQFDVEDLYEPVSTPFS”, the protein production entry is listed as “not failed”.
Regarding “MVGGGTVKKDLKKAIQYYVKACELNEMFGCLSLVSNSQINKQKLFQYLSKACELNSGNGCRFLGDFYENGKYVKKDLRKAAQYYSKACGLNDQDGCLILGYKQYAGKGVVKNEKQAVKTFEKACRLGSEDACGILNNY”, the protein production result is “failed”.
In the case of “MNAPLLTQDTKRTLAWIAVAVAFLALLKLLAPTLTPFVFAGILSYILHPGVEWLQRHRVPRVLGVFLMILLLTVVAVALMLLILAVLQREIPAIREQLPGMLSKLNAAVTPRLAEMGVHVRFDFPGLRKLLTEQLAASPEDVMSTALNYLRVSGSAAVQVLGIVFLVPIVMFYLLMDWNMLIRRLEGAVPRRWISKTRELAAETDGLLSQYLRGQIIVMLVLAAYYSAGLALAGFDVALPIGIFTGLAVFIPYIGFGIGLILAILSALLQFGNLYGLLAVAVVYGVGQVLEGFYLTPRLVGERIGLHPLAVILALLAFGQLFGFFGILLALPISAVLLVGLRQIRQLYLGSKLYRD”, the protein production entry is “failed”.
The value for “VITVGNYKGGAGKTTNVVLLAYKLAKKGLKVCVLDLDPQSNATKSLLLTKSSLYQDEVVTIEKTLMTGISEKNLDGLEVKIMDNLYLLPSYIDFEDFPKYLYKNTSNQREEDYYLKNIFTPLQGKYDIVLIDVPPMSKAVTRNAVICSDYVLISLQTHERSLSGAESYVEELNKLHNEYDLDLEVVGVLPVIHKNNGSVDQYVMEVAKETFGEDNLFENVVPQMERIKRFDVNGITDKDRHDQKVLNLYDKVSDELLD” was “failed”; that for “MALTPDQMPDRAEVVFTCNGKAVGKMRNELDVAMVKPFEERFALATDEGAFHGGDASAPPPLALFIAGLTGCVMTQIRAFAKRLKVTVTDLDVECRVVWDWAKAGPVYETGPKSFEIDIILHSPDPIEAQQALIEAAKKGCFLEQTLGQANTIRHRLKVGDTFIDA” was “not failed”; that for “MPRNNKTSLIQKIASQAYATFTNCSSSAIEDNNKVFLEHQADLVALLSDIRAADLKIAPPTKVSTSSPSVPPVTYMHICETDVFSMGVFLLKSGASIPLHDHPGMHGMLKVLYGKVSIRCYDKLDKAESDTERHFDPPLLAFQGDDVRRAALRSSGQFSELSGPCVLSPFKDNLHEIDAVDGAAAFLDILAPPYDPDDGRDCHYYRVLQTAGKKSEQSGDDEAWLLEIPQPDDFWCGGEPYPGPEVTI” was “not failed”.
In the case of “MAMEKPVLWYIADPMCSWCWGFAPVIENIRQEYSAFLTVKIMPGGLRPGTNTPLLPEKRAQILHHWHSVHITTGQPFTFENALPEGFIYDTEPACRGVVSVSLIEPEKVFPFFAAIQRAFYVGQEDVAQLAILKKLAVDLGIPESRFTPVFQSDEAKQRTLAGFQRVAQWGISGFPALVVESGTDRYLITTGYRPIEALRQLLDTWLQQHGV” it was “not failed”; in that of “WRRLVEEAARRDPDDVRLLVHVASDVWNFVDEHCTLVADAYRHVERQLAWRRENRLRLMTTALLDGTTRIADLPDVATALDLPEQGRYAVVSVAVAHPAGHVGTQLLSVPPGMRALWHTGTDVEHGIVHLGEREPKDLVDRVTVPIGARVGISRAVDGLAAVGDARRLAETALRACPESGGTVLLDEHLPAALLVSAPALGTALVNRVLGPLLSLDPSDRDLLLDTVSAWLDNDGSAQRAASRLYCHRNTVLNRLRRFEQLTGRCLTRPADVVDTSLALTARRL”, “failed”; in that of “MKYIIIGLGNYGGVLAEELSVLGHEVIGVDTNEHRVDVLKDKIATSFIIDATDEQSLSVLPLKDVDVVIVAIGENFGASVRVVALLKKKGVKHIYARAVDDVHKTVLEAFNLDSILTPEKEAARSLVQLLDLHVNVESFQIDEEHYVMKFKLPSCFVGYKVSDLSLETEFNIKIIALIKGEKVLNGLGISILEHQVENHFEENYELEEEDQLVCYGLYKNFMDFWKAL”, “failed”.
In the case of “MTTMQQRYDAVKDAMAQIGRLAAQLDGEALREAIGPVLVALGERDELFPRDEFPIRAGKPGGLYQLWRGESGDLALYASAGKTGKKQPPHDHTTWAVIAGVYGEEHNVFFERTDDGSRAGFGTLRQIDALTVVQGNAARLSGEVFHTIEVVSEEDSLHLHLHLYGRALDTLSGRINFATEEGGAYTRFMAVPETYAPWIAPRDLYEMLTDGGELAILDVRENGVYTQGHLFHAASMPLSVFELRVDDGLPSPHVRIVVIDDADGLAEQAVRLLHQRGYHNVAVLQGGQPGWNAAGLPVYTGVFVPSKAFGEVAEHVYGTPSISAVELDALRRSEEVLVLDSRTEQEFNLMSVPGAYSCPGAELVARALDHAGPIVVNCAGRTRSIIGAQSLRNAGKTDVRALENGTMGQHLAGLPLERGKSASYLDRPVAAGAAQAAQAWALGMSIATLDAGELHDMLSNPYRTTYLFDARDPSCSSRATLPRAVAAPGGQLVQQTDYYAPVRNARIVVFDTDGVQAPMTAGWLHQMGWEVYLHRPEATALVAPPRVEYDDERGVPVEAVAADAVIIDVGDSRTYRAGHLAGAAWAPRSRLPALLAQRKPAGPLLFTCADGRVSRLAAADAAAQGYQAAYLKGGTAALGADRLRGDAPQFLTEAIDVWYRPYDRETGIEEAMHQYLSWETGLLDKVRSDPTVAFRI” it was “failed”; in that of “MTKGESTMQRIAVLSDAETATGYRLAGATVIEASPEDALRTLEQAITDGGYGLIAVDTGLIPDPATATARIMRGRDLPILLPIPSLRDAFSSDTVDAKAYMGKLVRDTIGFDIKLLEHHHHHH”, “not failed”.
Consider “MKRKSIFLTFGLLVLSWIGCVENDLPYPTIVGQITEMEVAGMTSCRILGASNTVEIKVADTIDLRDLRVEKLVVTEGMKVYPDSAACLDIAHFPDTGFVSADSLPAGMDTRMNFLNPVKFRLSLYQDYDWTVNVSRDIVRKIKIKNQVGSALIDDYTKNVIVYVDSTEQPSLRNIEIEELQLGSSIAQTTPDPSKVVDFTRPRVFYVTAFDETEEWTLSVQYPNANVQLTQLSAWTRRAYVSGSISKGEVEAEYRKAGETVWESVLPNEISYEGEDFLIMMTHLAAGTNYEYRLTMNGTVGEILTFTTDTIMQVPNLGFDDWVMKNEKTWYPNATLDDADHFWDSGNEGASIASRNPTAPETGDVVKGRAVRMASDYISIASKFAAGNIYTGDFVGLAGIEGAELDFGQPYTGRPSALKGYYRYTPGVIDQAKAPYDALMGQTDSCHIYIGLFDWSAPFRVNTTTGTFVDLTWNNESMIAFGELKSNEATGSEYKQFKINLTYRDYFTHPKYILIVASASKYGDYFTGSTSSVMYLDECELVFE”, for which the protein production result was “failed”.
The value for “MKKVLPALLMGFVGLNASDRLLEIMRLYQKQGLEMVGQKLDSYLADKSFWAEELQNKDTDFGYYQNKQFLFVANKSKPSLEFYEIENNMLKKINSSKALVGSKKGDKTLEGDLATPIGVYRITQKLERLDQYYGVLAFVTNYPNLYDTLKKRTGHGIWVHGMPLNGDRNELNTKGCIAIENPLLSSYDKVLKGEKAFLITYEDKFFPSTKEELSMILSSLFQWKEAWARGDFERYMRFYNPNFTRYDGMKFNAFKEYKKRVFAKNEKKNIAFSSINVIPYPNSQNKRLFYVVFDQDYKAYQHNKLSYSSNSQKELYIEIENNQVSIIMEK” was “failed”.
